Data from PMC4759581, “A DNA aptamer recognising a malaria protein biomarker can function as part of a DNA origami assembly”.

B1: aptamer staple 83 (ssDNA)
DNA: TTATTACGGTCAGAGGGTAATTGAATAGCAGCTTTTTTTTTTTTTTTTTTTTCTGGGCGGTAGAACCATAGTGACCCAGCCGTCTAC
B2: aptamer staple 93 (ssDNA)
DNA: GAGCAAAAACTTCTGAATAATGGAAGAAGGAGTTTTTTTTTTTTTTTTTTTTCTGGGCGGTAGAACCATAGTGACCCAGCCGTCTAC
B3: aptamer-staple 121 Middle (ssDNA)
DNA: TTTCATTTGGTCAATACTGGGCGGTAGAACCATAGTGACCCAGACCTGTTTATATCGCG
B4: aptamer-staple 87 Middle (ssDNA)
DNA: TCATTACCCGACAATACTGGGCGGTAGAACCATAGTGACCCAGAACAACATATTTAGGC
B5: aptamer staple 87 (ssDNA)
DNA: TCATTACCCGACAATAAACAACATATTTAGGCTTTTTTTTTTTTTTTTTTTTCTGGGCGGTAGAACCATAGTGACCCAGCCGTCTAC
B6: aptamer staple 79 (ssDNA)
DNA: TGAGGCAGGCGTCAGACTGTAGCGTAGCAAGGTTTTTTTTTTTTTTTTTTTTCTGGGCGGTAGAACCATAGTGACCCAGCCGTCTAC
B7: aptamer staple 91 (ssDNA)
DNA: TATGTAAACCTTTTTTAATGGAAAAATTACCTTTTTTTTTTTTTTTTTTTTTCTGGGCGGTAGAACCATAGTGACCCAGCCGTCTAC
B8: aptamer staple 85 (ssDNA)
DNA: CTTTACAGTTAGCGAACCTCCCGACGTAGGAATTTTTTTTTTTTTTTTTTTTCTGGGCGGTAGAACCATAGTGACCCAGCCGTCTAC
B9: aptamer staple 97 (ssDNA)
DNA: CTAAAGCAAGATAGAACCCTTCTGAATCGTCTTTTTTTTTTTTTTTTTTTTTCTGGGCGGTAGAACCATAGTGACCCAGCCGTCTAC
B10: aptamer-staple 11 Edge (ssDNA)
DNA: CCTAATTTACGCTAACGAGCGTCTAATCAATACTGGGCGGTAGAACCATAGTGACCCAG
B11: aptamer staple 76 (ssDNA)
DNA: TATCACCGTACTCAGGAGGTTTAGCGGGGTTTTTTTTTTTTTTTTTTTTTTTCTGGGCGGTAGAACCATAGTGACCCAGCCGTCTAC
B12: aptamer staple 89 (ssDNA)
DNA: AGAGGCATAATTTCATCTTCTGACTATAACTATTTTTTTTTTTTTTTTTTTTCTGGGCGGTAGAACCATAGTGACCCAGCCGTCTAC
B13: aptamer staple 77 (ssDNA)
DNA: TGCTCAGTCAGTCTCTGAATTTACCAGGAGGTTTTTTTTTTTTTTTTTTTTTCTGGGCGGTAGAACCATAGTGACCCAGCCGTCTAC
B14: aptamer-staple 111 Edge (ssDNA)
DNA: AAACCCTCTTTTACCAGTAATAAAAGGGATTCACCAGTCACACGTTTTCTGGGCGGTAGAACCATAGTGACCCAG
B15: aptamer staple 95 (ssDNA)
DNA: CGGAATTATTGAAAGGAATTGAGGTGAAAAATTTTTTTTTTTTTTTTTTTTTCTGGGCGGTAGAACCATAGTGACCCAGCCGTCTAC
B16: aptamer-staple 211 Edge (ssDNA)
DNA: GCTAAATCTTTTCTGTAGCTCAACATGTATTGCTGACTGGGCGGTAGAACCATAGTGACCCAG
B17: aptamer staple 81 (ssDNA)
DNA: CCGGAAACACACCACGGAATAAGTAAGACTCCTTTTTTTTTTTTTTTTTTTTCTGGGCGGTAGAACCATAGTGACCCAGCCGTCTAC

Assays:
Settings in all cases: protein: recombinant; chain copies: 4; hairpin
[1] = biological target: T1, Plasmodium falciparum lactate dehydrogenase (PfLDH) (Plasmodium falciparum, UniProt Q71T02 1-316); experiment: EMSA; apparent, 1:1 fit; EMSA: 25 nM strand, 0-2500 nM PfLDH (tetramer concentration in legends; text says Kd per subunit), 25 mM Tris-HCl pH 7.5, 100 mM NaCl, 20 mM imidazole, 25 C 1 h
[2] = biological target: T1, Plasmodium falciparum lactate …; experiment: EMSA; 4 C; EMSA: 25 nM strand, 0-2500 nM PfLDH (tetramer concentration in legends; text says Kd per subunit), 25 mM Tris-HCl pH 7.5, 100 mM NaCl, 20 mM imidazole, 25 C 1 h
[3] = biological target: T1, Plasmodium falciparum lactate …; experiment: EMSA; 4 C; Fig. S15 panel assignment of 606/355 unclear; EMSA: 25 nM strand, 0-2500 nM PfLDH (tetramer concentration in legends; text says Kd per subunit), 25 mM Tris-HCl pH 7.5, 100 mM NaCl, 20 mM imidazole, 25 C 1 h

Binder | Kd [1] | other results
B1 | 1.09 ± 0.183 µM | –
B2 | 0.647 ± 0.128 µM | –
B3 | – | binding result [2]: no binding
B4 | – | Kd [2]: 1.73 ± 0.244 µM
B5 | 0.878 ± 0.154 µM | –
B6 | 0.826 ± 0.3 µM | –
B7 | 0.984 ± 0.177 µM | –
B8 | 0.713 ± 0.161 µM | –
B9 | 0.76 ± 0.126 µM | –
B10 | – | Kd [2]: 0.596 ± 0.107 µM
B11 | 0.965 ± 0.265 µM | –
B12 | 0.75 ± 0.095 µM | –
B13 | 0.726 ± 0.186 µM | –
B14 | – | Kd [3]: 0.606 ± 0.164 µM
B15 | 0.846 ± 0.161 µM | –
B16 | – | Kd [3]: 0.355 ± 0.073 µM
B17 | 0.97 ± 0.254 µM | –
